Assay results as given in patent US20030236190A1 (published 2003).
Non-standard residues stand in square brackets, D forms with d. No end group written: not given here. Hyp = O=C(O)[C@@H]1C[C@@H](O)CN1

These binders were tested against T1, Soluble IGF-1R (R&D Systems, Cat. # 391-GR/CF); recombinant human IGF-1R (human, UniProt P08069 31-935) (assay: phage ELISA, vs IR).
T1 construct: extracellular domain; Eu3+-labelled in the TR-FRET assays; also called sIGF-1R; rhIGF-1R

| Binder | IGF-1R/IR Comparison [ratio] |
| --- | --- |
| YRGMLVLGRISGGAGKAASERPARIGQKVSAVNFYDWFV [A6L-0-H3-IR] | 13 |
| CCTTEMVVMDARDDPFYHKLSELVTGG [B6Hα-1-B5-IR] | 20.5 |
| RGAVAGFHDQFYDWFDRQVSRVHKFG [H2CA-4-E9-IGFR] | 3 |

What follows are binders tested against T1, Soluble IGF-1R (R&D Systems, Cat. # …) (assay: phage ELISA vs milk).

| Binder | Ratio over Background [fold] |
| --- | --- |
| YRGMLVLGRISGGAGKAASERPARIGQKVSAVNFYDWFV [A6L-0-H3-IR] | 26 |
| CCTTEMVVMDARDDPFYHKLSELVTGG [B6Hα-1-B5-IR] | 20.5 |
| RGAVAGFHDQFYDWFDRQVSRVHKFG [H2CA-4-E9-IGFR] | 5.6 |

These binders were tested against human insulin receptor (HIR) (human, UniProt P06213 28-1382, limits assumed) (assay: 125I-insulin competition, solubilised HIR).

| Binder | Kd [nM] |
| --- | --- |
| LDEWAWVQCVEYGRGCPSESFYDWFERQLG [S483] | 52 |
| GSLDESFYDWFERQLGGGSGGSWLDQEWAWVQCEVYGRGCPS [S459] | 0.076 |
| GSLDESFYDWFERQLGGGSGGSWLDEEWAQVQCEVYGRGCPS [S543] | 0.019 |
| WLDQEWAWVQCEVYGRGCPSGGSGGSGSLDESFYDWFERQLG [S457] | 1.6 |
| WLDQEWAWVQCEVYGRGCPSGGSGGSGSLDESFYDWFERQLG [S458] | 3.2 |
| ESFYDWFERQL [S399] | 95 |
| LDQEWAWVQCEVYGRGCPSESFYDWFERQLG [S471] | 0.67 |
| ADQEWAWVQCEVYGRGCPSESFYDWFERQLG [S494] | 17 |
| S442 (not fully specified (bridges); cysteine pairing not given here; also: bond at chain A 16 to a chain's C-terminus) peptide 1: ESFYDWFERQLGGGGK peptide 2: AWVQCEVYGRGCPS | 160 |
| S456 (not fully specified; N-terminal Ald) peptide 1: XGSLDESFYDWFERQLGKK peptide 2: XKEWLDQEWAWVQCEVYGRGCPSEE | 2.4 |
| S439 (not fully specified (bridges); cysteine pairing not given here; also: K16 of chain 1 chemically linked to C-terminus of chain 2 (C-C on a lysine)) peptide 1: ESFYDWFERQLGGGGK peptide 2: QEWAWVQCEVYGRGCPS | 46 |
| S437 (not fully specified (bridges); cysteine pairing not given here; also: K16 of chain 1 chemically linked to C-terminus of chain 2 (C-C on a lysine)) peptide 1: ESFYDWFERQLGGGGK peptide 2: LDQEWAWVQCEVYGRGCPS | 0.69 |
| S440 (not fully specified (bridges); cysteine pairing not given here; also: K16 of chain 1 chemically linked to C-terminus of chain 2 (C-C on a lysine)) peptide 1: ESFYDWFERQLGGGGK peptide 2: EWAWVQCEVYGRGCPS | 99 |
| S438 (not fully specified (bridges); cysteine pairing not given here; also: K16 of chain 1 chemically linked to C-terminus of chain 2 (C-C on a lysine)) peptide 1: ESFYDWFERQLGGGGK peptide 2: DQEWAWVQCEVYGRGCPS | 30 |
| S441 (not fully specified (bridges); cysteine pairing not given here; also: K16 of chain 1 chemically linked to C-terminus of chain 2 (C-C on a lysine)) peptide 1: ESFYDWFERQLGGGGK peptide 2: WAWVQCEVYGRGCPS | 120 |
| ESFYDWFERQ [S400] | 630 |

The binders below were run against T2, human insulin receptor (HIR) (human, UniProt P06213 28-1382, limits assumed) (assay: 125I-insulin displacement, solubilised HIR).
T2 construct: Detergent-solubilised receptor; The natural receptor is an alpha2-beta2 heterotetramer cleaved from one precursor

| Binder | Kd [nM] |
| --- | --- |
| FYDWFERQLG [S392] | 3800 |
| S359 (N-terminal Lig′ coupled to linker 9, dimer, N-N) peptide 1: XDWLQRNANFYDWFVAEL peptide 2: XDWLQRNANFYDWFVAEL | 700 |
| GIISQSCPESFYDWFAGQVSDPWWC[dW] (cysteine pairing not given here, also called G33; H2CA-4-G9-IGFR) [S326] | 590 |
| SGSLDESFYDWFERQLGKK [S372] | 200 |
| S333 (N-terminal Lig′ coupled to linker 22, dimer, N-N) peptide 1: XGSLDESFYDWFERQLGKK peptide 2: XGSLDESFYDWFERQLGKK | 140 |
| GSLDESFYDWFERQLGKKKS (not fully specified; printed as GSLDESFYDWFERQLGKKK(S)) [S373] | 120 |
| S350 (not fully specified; C-terminal Lig coupled to linker 21, dimer, C-C) peptide 1: GSLDESFYDWFERQLGKKX peptide 2: GSLDESFYDWFERQLGKKX | 470 |
| S360 (N-terminal Lig′ coupled to linker 23, dimer, N-N) peptide 1: XDWLQRNANFYDWFVAEL peptide 2: XDWLQRNANFYDWFVAEL | 990 |
| S354 (N-terminal Lig′ coupled to linker 14, dimer, N-N) peptide 1: XGSLDESFYDWFERQLGKK peptide 2: XGSLDESFYDWFERQLGKK | 39 |
| S378 (C-terminal Lys carrying Ald coupled to linker 17, dimer, C-C) peptide 1: GSLDESFYDWFERQLGKKKX peptide 2: GSLDESFYDWFERQLGKKKX | 65 |
| GSLDESFYDWFERQL [S395] | 8100 |
| LDESFYDWFERQLG [S388] | 340 |
| RMYFSTGAPQNFYDWFVQEWD [S365] | 10000 |
| S376 (N-terminal Ald coupled to linker 19, dimer, N-N) peptide 1: XGSLDESFYDWFERQLGKK peptide 2: XGSLDESFYDWFERQLGKK | 160 |
| KHLCVLEELFWGASLFGYCSGKK [S331] | 1600 |
| GSLDESFYDWFERQLG (also called RP9 minus terminal lysines) [S386] | 320 |

| Binder | Kd [nM] |
| --- | --- |
| S325 (N-terminal Lig′ coupled to linker 9, dimer, N-N) peptide 1: XGSLDESFYDWFERQLGKK peptide 2: XGSLDESFYDWFERQLGKK | 46 |
| S335 (not fully specified; C-terminal Lig coupled to linker 22, dimer, C-C) peptide 1: GSLDESFYDWFERQLGKKX peptide 2: GSLDESFYDWFERQLGKKX | 98 |
| S329 (N-terminal Lig′ coupled to linker 17, dimer, N-N) peptide 1: XFHENFYDWFVRQVSKK peptide 2: XFHENFYDWFVRQVSKK | 2700 |
| S352 (N-terminal Lig′ coupled to linker 21, dimer, N-N) peptide 1: XGGGFHENFYDWFVRQVSKK peptide 2: XGGGFHENFYDWFVRQVSKK | 660 |
| S379 (C-terminal Lys carrying Ald coupled to linker 19, dimer, C-C) peptide 1: GSLDESFYDWFERQLGKKKX peptide 2: GSLDESFYDWFERQLGKKKX | 56 |
| GSLDESFYDWFERQLGKK (also called RP9) [S371] | 630 |
| DLWFNAKEDMNFYDWFVWQLR [S342] | 1800 |
| S381 (C-terminal Lig′ coupled to linker 23, dimer, C-C) peptide 1: EEDWLQRNANFYDWFVAELX peptide 2: EEDWLQRNANFYDWFVAELX | 120 |
| SLDESFYDWFERQLG [S387] | 630 |
| S374 (not fully specified; N-terminal Ald (aldehyde from periodate oxidation of serine) coupled to linker 17, dimer, N-N) peptide 1: XGSLDESFYDWFERQLGKK peptide 2: XGSLDESFYDWFERQLGKK | 180 |
| PLRESRNFYDWFVQQLE [S366] | 370 |
| S334 (N-terminal Lig′ coupled to linker 22, dimer, N-N) peptide 1: XGGGFHENFYDWFVRQVSKK peptide 2: XGGGFHENFYDWFVRQVSKK | 1600 |
| S362 (N-terminal Lig′ coupled to linker 24, dimer, N-N) peptide 1: XGSLDESFYDWFERQLGKK peptide 2: XGSLDESFYDWFERQLGKK | 110 |
| S361 (C-terminal Lig′ coupled to linker 24, dimer, C-C) peptide 1: GSLDESFYDWFERQLGKKX peptide 2: GSLDESFYDWFERQLGKKX | 2200 |
| GSLDESFYDWFERQ [S394] | 91 |
| EWRD[Hyp]FYDWFDE[dI][Hyp][dE] (printed: EWRD-Hyp-FYDWFDEi-Hyp-e) [S322] | 720 |
